Test results taken from the RNAGym collection of RNA variant scans (doi:10.7554/elife.80360).

B1: HDV Ribozyme (parent)
chain: GGCCGGCAUGGUCCCAGCCUCCUCGCUGGCGCCGGCUGGGCAACAUUCCGAGGGGACCGUCCCCUCGGUAAUGGCGAAUGGGACCCA

Variants of: B1
Assay: self-cleavage, relative activity (ratio to wild type); higher = more cleavage; co-transcriptional

Row | Variant | self-cleavage
1 | GGCCGGCAUAGUCCCAGCCUCCUCGCUGGCGCCGGCUGGGCAACAUUCCGAGGGGACCGUCCCCUCGGUAAAGGCGAAUGGGACCCA | 0.485
2 | GGCCGGCAUAGUACCAGCCUCCUCGCUGGCGCCGGCUGGGCAACAUUCCGAGGGGACCGUCCCCUCGGUAAUGGCGAAUGGGACCCA | 0.0941
3 | GGCCGGCAUCGUCCCAGCCUCCUCGCUGGCGCCGGCUGGGCAACAUUCCGAGGGGGCCGUCCCCUCGGUAAUGGCGAAUGGGACCCA | 0.532
4 | GGCCGGCAUCGUCCCAGCCUCCUCGCUGGCGCCGGCUGGGCAACAUUCCGAGGGGUCCGUCCCCUCGGUAAUGGCGAAUGGGACCCA | 0.957
5 | GGCCGGCAUAGUCCCAGCCUCCUCGCUGGGGCCGGCUGGGCAACAUUCCGAGGGGACCGUCCCCUCGGUAAUGGCGAAUGGGACCCA | 0.0777
6 | GGCCGGCAUCGUCCCAGCCUCCUCGCUGGCGCCGGCUGGGCAACAUUCCGAGGGGACCGUCCCCUCGGUAAUGGCGACUGGGACCCA | 0.185
7 | GGCCGGCAUAGUCCCAGCCUCCUCGCUGGCGCCGGCUGGGCAACAUUCCGAGGGGACCGUCCCCUCGGUAAUGGCGAGUGGGACCCA | 0.302
8 | GGCCGGCAUAGUCCCAGCCUCCUCGCUGGCGCCGGCUGGGCAACAUUCGGAGGGGACCGUCCCCUCGGUAAUGGCGAAUGGGACCCA | 0.46
9 | GGCCGGCAUAGUCCCAGCCUCCUCGCUGGCGCCGGCUGGGCAACAUUCCGAGGGGACCGUUCCCUCGGUAAUGGCGAAUGGGACCCA | 0.84
10 | GGCCGGCAUAGUCCCAGCCCCCUCGCUGGCGCCGGCUGGGCAACAUUCCGAGGGGACCGUCCCCUCGGUAAUGGCGAAUGGGACCCA | 0.0234
11 | GGCCGGCAUAGUCCCAGCCUCCUCGCUGGCGCCGGCUGGGCAACAUUCCGAGGGGACCUUCCCCUCGGUAAUGGCGAAUGGGACCCA | 0.95
12 | GGCCGGCAUAGUCCCAGCCUCCUCGCUGGCGCCGGCUGGGCAACAUUCCGAGGGGACCGUCCCCUCGGUAAUGGCGAAUGGGACCCC | 0.764
13 | GGCCGGCAUAGUCCCAGCCUCCUCGCUGGCGCCGGCUGGGCAACAUUCCGAGGGGACCGUCCCCUCGGUAAUGCCGAAUGGGACCCA | 0.105
14 | GGCCGGCAUCGUCCCAGCCUCCUCGCUGGCGCCGGCUGGGCAACUUUCCGAGGGGACCGUCCCCUCGGUAAUGGCGAAUGGGACCCA | 1.11
15 | GGCCGGCAUCGUCCCAGCCUCCUCGCUGGCGCCGGCUGGGCAACCUUCCGAGGGGACCGUCCCCUCGGUAAUGGCGAAUGGGACCCA | 0.231
16 | GGCCGGCAUAGUCCCAGCCUCCUCGCUGGCGCCGGCUGGGCAACAUUCCGAGGGGACCGUCCCCUCGGUAAUGGAGAAUGGGACCCA | 0.0898
17 | GGCCGGCAUAGUCCCAGCCUCCUCGCUGGCGCCGGCUGGGCAACAUUCCGAGGGGACCGUCCCCUCGGUAAUGGUGAAUGGGACCCA | 0.0992
18 | GGCCGGCAUAGUCCCAGCCUCCUCGCUGGCGCCGGCUGGGCAACAUUCCCAGGGGACCGUCCCCUCGGUAAUGGCGAAUGGGACCCA | 0.513
19 | GGCCGGCAUAGUCCCAGCCUCCUCGCUGGCGCCGGCUGGGCAACAUUCCGAGGGGACCGUCCCCUCGGUAAUGGCGAAUGGGACCUA | 0.774
20 | GGCCGGCAUCGUCCCAGCCUCCUCGCUGGCGCCGGCUGGGCAACAUUCCGAGGGGACCGUCCCCUCGGUAAUGGCGGAUGGGACCCA | 0.458
21 | GGCCGGCAUAGUCCCAGCCUCCUCGCUGGCGCCGGCUGGGCAACAGUCCGAGGGGACCGUCCCCUCGGUAAUGGCGAAUGGGACCCA | 0.536
22 | GGCCGGCAUAGUCCCAGCCUCCUCGCUGGCGCCGGCUGGGCAACAUUCCGAGGGGACCGUCCCCUCGGUAAUGGCGAAUGGGUCCCA | 0.322

Row | Variant | self-cleavage
23 | GGCCGGCAUAGUCCCAGCCUCCUCGCUGGCGCCGGCUGGGCAACAUUCCGAGGGGACCGUCCCCUCGGUAAUGGCGAAUGGGCCCCA | 0.287
24 | GGCCGGCAUAGUCCCAGCCUCCUCGCUGGCGCCGGCUGGGCAACAUUCCGAGGGGACCGUCCCCUCGGUAAUGGCCAAUGGGACCCA | 0.772
25 | GGCCGGCAUAGUCCCAGCCUCCUCGCUGGCGCCGGCUGGGCAACAUUCCGAGGGGACCGUCCCCUCGGUAAUGGCUAAUGGGACCCA | 0.997
26 | GGCCGGCAUAGUCCCAGCCUCCUCGCUGGCGCCGGCUGGGCAACAUUCCGAGGGGACCGUCCCCUCGGUAAUGGCAAAUGGGACCCA | 1.04
27 | GGCCGGCAUAGUCCCAGCCUCCUCGCUGGCGCCUGCUGGGCAACAUUCCGAGGGGACCGUCCCCUCGGUAAUGGCGAAUGGGACCCA | 0.257
28 | GGCCGGCAUAGUCCCAGCCUCCUCGCUGGCGCCAGCUGGGCAACAUUCCGAGGGGACCGUCCCCUCGGUAAUGGCGAAUGGGACCCA | 0.164
29 | GGCCGGCAUAGUCCCAGCCUCCUCGCUGGCGCCGGCUGGGCAACAUUCCGAGGGGACCGUCCCCUCGGCAAUGGCGAAUGGGACCCA | 0.997
30 | GGCCGGCAUAGUCCCAGCCUCCUCCCUGGCGCCGGCUGGGCAACAUUCCGAGGGGACCGUCCCCUCGGUAAUGGCGAAUGGGACCCA | 0.0639
31 | GGCCGGCAUAGUCCCAGCCUCCUCACUGGCGCCGGCUGGGCAACAUUCCGAGGGGACCGUCCCCUCGGUAAUGGCGAAUGGGACCCA | 0.126
32 | GGCCGGCAUAGUCCCAGCCUCCUCGCUGGCGCCGGCUGCGCAACAUUCCGAGGGGACCGUCCCCUCGGUAAUGGCGAAUGGGACCCA | 0.182
33 | GGCCGGCAUAGUCCCAGCCUCCUCGCUGGCGCCGGCUGGGCAACAUUCCGAGGGGACCGACCCCUCGGUAAUGGCGAAUGGGACCCA | 0.739
34 | GGCCGGCAUAGUCCCAGCCUCCUGGCUGGCGCCGGCUGGGCAACAUUCCGAGGGGACCGUCCCCUCGGUAAUGGCGAAUGGGACCCA | 0.061
35 | GGCCGGCAUAGUCCCAGCCUCCUUGCUGGCGCCGGCUGGGCAACAUUCCGAGGGGACCGUCCCCUCGGUAAUGGCGAAUGGGACCCA | 0.338
36 | GGCCGGCAUAGUCCCAGCCUCCUCGCUGGCGCCGGGUGGGCAACAUUCCGAGGGGACCGUCCCCUCGGUAAUGGCGAAUGGGACCCA | 0.101
37 | GGCCGGCAUAGUCCCAGCCUCCUCGCUGGCGCCGGCUGGGCAACAUUCCGAGGGGACCGUCCCCUCGGUAAUGGCGUAUGGGACCCA | 0.169
38 | GGCCGGCAUAGUCCCAGCCUCCUCGCUGGCACCGGCUGGGCAACAUUCCGAGGGGACCGUCCCCUCGGUAAUGGCGAAUGGGACCCA | 0.203
39 | GGCCGGCAUAGUCCCAGCCUCCUCGCUGGCGCCGGCUGGGCAACAUUCCGAGGGGACCGUCCCCUGGGUAAUGGCGAAUGGGACCCA | 0.623
40 | GGCCGGCAUAGUCCCAGCCUCCUCGCUGGCGCCGGCUGGGCAACAUUCCGAGGGCACCGUCCCCUCGGUAAUGGCGAAUGGGACCCA | 0.734
41 | GGCCGGCAUAGUCCCAGCCUCCUCGCUGGCGCCGGCUGGGCAACAUUCCGAGGGGACCGUCCCCUCGGUAAUGGCGAAUGGGAGCCA | 0.591
42 | GGCCGGCAUAGUCCCAGCCUCCUCGCUGGCGCCGGCUGGGCAACAUUCCGAGGGGACCGUCCCCUCGGUAAUGGCGAAUGGGAACCA | 0.562
43 | GGCCGGCAUAGUCCCAGCCUCCUCGCUGGCGCCGGCUGGGCAACAUUUCGAGGGGACCGUCCCCUCGGUAAUGGCGAAUGGGACCCA | 0.895
44 | GGCCGGCAUAGUCCCAGCCUCCUCGCUGGCGCCGGCUGGGCAACAUUCCGAGGGGACCGUCCCCUCCGUAAUGGCGAAUGGGACCCA | 0.599

Row | Variant | self-cleavage
45 | GGCCGGCAUAGUCCCAGCCUCCUCGCUGGCGCCGGCUGGGCAACAUUCCGAGGGGACCGUCCCCUCUGUAAUGGCGAAUGGGACCCA | 0.767
46 | GGCCGGCAUCGUCCCAGCCUCCUCGCUGGCGCCGGCUGGGCGACAUUCCGAGGGGACCGUCCCCUCGGUAAUGGCGAAUGGGACCCA | 0.151
47 | GGCCGGCAUCGUCCCAGCCUCCUCGCUGGCGCCGGCUGGGCUACAUUCCGAGGGGACCGUCCCCUCGGUAAUGGCGAAUGGGACCCA | 0.289
48 | GGCCGGCAUAGUCCCAGCUUCCUCGCUGGCGCCGGCUGGGCAACAUUCCGAGGGGACCGUCCCCUCGGUAAUGGCGAAUGGGACCCA | 0.0326
49 | GGCCGGCAUAGUCCCAGCCUCCUCGCUGGCGCCGGCUGGGCAAAAUUCCGAGGGGACCGUCCCCUCGGUAAUGGCGAAUGGGACCCA | 0.321
50 | GGCCGGCAUAGUCCCAGCCUCCUCGCCGGCGCCGGCUGGGCAACAUUCCGAGGGGACCGUCCCCUCGGUAAUGGCGAAUGGGACCCA | 0.759
51 | GGCCGGCAUAAUCCCAGCCUCCUCGCUGGCGCCGGCUGGGCAACAUUCCGAGGGGACCGUCCCCUCGGUAAUGGCGAAUGGGACCCA | 0.189
52 | GGCCGGCAUAGUCCCAGCCUCCUCGCUGGCGCCGGCUGGGCAACAUUCCGAGGGGACCGUCCCCGCGGUAAUGGCGAAUGGGACCCA | 0.767
53 | GGCCGGCAUAGUCCCAGCCUCCUCGCUGGCGCCGGCUGGGCAACAUUCCGAGGGGACCGUCCCCUCGGUAAUAGCGAAUGGGACCCA | 0.175
54 | GGCCGGCAUAGUCCCAGCCUCCUCGCUGGCGCCGGCUGGGCAACAUUCCGAGGGGAGCGUCCCCUCGGUAAUGGCGAAUGGGACCCA | 0.912
55 | GGCCGGCAUAGUCCCAGCCUCCUCGCUGGCGCCGGCUGGGCAACAUUCCGAGGGGAACGUCCCCUCGGUAAUGGCGAAUGGGACCCA | 0.727
56 | GGCCGGCAUAGUCCCAGCCUCCUCGCUGGCGCCGGCUGGGCAACAUUCCGAGGUGACCGUCCCCUCGGUAAUGGCGAAUGGGACCCA | 0.84
57 | GGCCGGCAUAGUCCCAGCCUCCUCGCUGGCGCCGGCUGGGCAACAUUCCGAGGCGACCGUCCCCUCGGUAAUGGCGAAUGGGACCCA | 0.582
58 | GGCCGGCAUCGUCCCGGCCUCCUCGCUGGCGCCGGCUGGGCAACAUUCCGAGGGGACCGUCCCCUCGGUAAUGGCGAAUGGGACCCA | 0.453
59 | GGCCGGCAUAGUCCCAGCCUCCUCGCUGGCGCCGGCUGGGCAACAUUCCGAGGGGACCGUCCACUCGGUAAUGGCGAAUGGGACCCA | 0.76
60 | GGCCGGCAUCGUCCCAGCCUCCUCGCUGGCGCCGGCUGGGCAACAUUCCGAGGGGACCGUCCCCUCGGUCAUGGCGAAUGGGACCCA | 0.923
61 | GGCCGGCAUAGUCCCAGCCUCCUCGGUGGCGCCGGCUGGGCAACAUUCCGAGGGGACCGUCCCCUCGGUAAUGGCGAAUGGGACCCA | 1.11
62 | GGCCGGCAUAGUCCCAGCCUCCUCGAUGGCGCCGGCUGGGCAACAUUCCGAGGGGACCGUCCCCUCGGUAAUGGCGAAUGGGACCCA | 0.906
63 | GGCCGGCAUAGUCCUAGCCUCCUCGCUGGCGCCGGCUGGGCAACAUUCCGAGGGGACCGUCCCCUCGGUAAUGGCGAAUGGGACCCA | 0.332
64 | GGCCGGCAUAGUCCAAGCCUCCUCGCUGGCGCCGGCUGGGCAACAUUCCGAGGGGACCGUCCCCUCGGUAAUGGCGAAUGGGACCCA | 0.208
